Experiment [1] concerns the target T1, Recombinant mouse VEGF165 (mouse, UniProt Q00731-2 27-190).
T1 construct: also called mVEGF
T1 sequence (looked up): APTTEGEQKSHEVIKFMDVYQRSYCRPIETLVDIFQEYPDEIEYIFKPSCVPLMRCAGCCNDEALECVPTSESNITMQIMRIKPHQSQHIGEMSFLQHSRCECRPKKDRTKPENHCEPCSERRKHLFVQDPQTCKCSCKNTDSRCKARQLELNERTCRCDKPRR
In words: SPR (Biacore 2000), biotinylated mouse VEGF165 on streptavidin chip, antibody as analyte. The method, then:
(§1) The KDs of parental antibodies anti-VEGF 219R45 (IgG format), anti-DLL4 21R79 (IgG format), anti-DLL4 21M18 (IgG format) and bispecific antibodies 219R45-MB-21M18 and 219R45-MB-21R79 were determined using a Biacore 2000 system from Biacore LifeSciences (GE Healthcare). Recombinant human DLL4-Fc or mouse DLL4-Fc proteins were immobilized on CM5 carboxyl chips using standard amine-based chemistry (NHS/EDC) and blocked with ethanolamine Recombinant human VEGF₁₆₅ or mouse VEGF₁₆₅ were biotinylated and immobilized on streptavidin chips. The antibodies were serially diluted 2-fold from 100 nM to 0.78 nM in HBS-P (0.01M HEPES pH7.4, 0.15M NaCl, 0.005% v/v Polysorbate 20). For each antibody, all 8 dilutions were sequentially injected over a specific chip. Kinetic data were collected over time and were fit using the simultaneous global fit equation to yield affinity constants (KD values) for each bispecific antibody.

Experiment [2] concerns the target T2, Recombinant human DLL4-Fc (human, UniProt Q9NR61 27-522, limits assumed).
T2 construct: also called hDLL4; hDLL4-Fc; not shown: Fc portion
In words: HTRF bridging assay: Europium cryptate-labeled hVEGF165 and d2-labeled hDLL4-Fc; signal needs both bound at once. The method, then: (§2) To characterize the binding capabilities of certain antibodies and/or antibody mixtures to both VEGF and DLL4, homogeneous time resolved fluorescence (HTRF) assays were performed. Antibodies tested were anti-VEGF/anti-DLL4 bispecific antibodies 219R45-MB-21M18 and 219R45-MB-21R79, parental antibodies 219R45 (anti-VEGF), 21M18 (anti-DLL4), 21R79 (anti-DLL4), a combination of 219R45 and 21M18, or a combination of 219R45 and 21R79. The antibodies or antibody mixtures were serially diluted 2-fold from 3000 nM to 2.9 nM in binding buffer (1×PBS, 0.1% gelatin, 0.1% Polysorbate 20, 400 mM potassium fluoride) and placed in a white 96-well plate. An equal volume of solution containing 4 μg/ml of d2-labeled hDLL4-Fc and 21.4 ng/ml Europium crypate-labeled hVEGF₁₆₅ was added to each well for a final volume of 100 μl (final concentrations of acceptor and donor fluorophores were 2 μg/ml and 10.7 ng/ml, respectively). The assay plates were incubated for 2 hours to overnight and read on a SpectraMax M5e Microplate reader (Molecular Devices, Sunnyvale Calif.) at an excitation wavelength of 314 nm.
Background: TR-FRET usually uses a lanthanide donor and a delayed reading to cut background.

Experiment [3] addresses T3, Recombinant human VEGF165 (human, UniProt P15692-4 27-191).
T3 construct: also called hVEGF; hVEGF165
The experiment can be described thus: SPR (Biacore 2000), biotinylated human VEGF165 on streptavidin chip, antibody as analyte. The method, then:
as §1
A general note: In SPR one partner is held on a chip, and binding of the other changes the refractive index at the surface.

Experiment [4] addresses T3, Recombinant human VEGF165. The experiment can be described thus: HTRF bridging assay: Europium cryptate-labeled hVEGF165 and d2-labeled hDLL4-Fc; signal needs both bound at once. The method, then: as §2
Experiment [5] deals with T2, Recombinant human DLL4-Fc. The experiment can be described thus: SPR (Biacore 2000), human DLL4-Fc amine-coupled on CM5 chip, antibody as analyte. The method, then:
as §1

The target in experiment [6] is T4, biotin-DLL4-hFc (UniProt Q9NR61 27-522, limits assumed, biotinylated (site not stated)).
T4 construct: not shown: human Fc (hFc)
The experiment can be described thus: bispecific sandwich ELISA: antibody pre-incubated with 2 ug/ml biotin-DLL4-hFc, captured on VEGF-coated plate, detected with streptavidin-HRP. The method, then:
(§3) FIG. 7. Bispecific antibody ELISA. Bispecific antibodies 219R45-MB-21M18, 219R45-MB-21R79, 219R45-MB-21R75, and 219R45-MB-21R83 were diluted in blocking buffer (lx PBS, 0.1% gelatin, 0.1% Polysorbate-20, pH 7.4) containing 2 μg/ml biotin-DLL4-hFc. The antibodies were serially diluted 3-fold from 500 ng/ml to 0.008 ng/ml. The antibody samples were incubated for 2 hours in blocking buffer containing the biotin-DLL4-hFc. After incubation, the antibody samples were transferred to a VEGF-coated assay plate (100 ul/well) and incubated for 2 hours. Streptavidin-HRP was added to each well and incubated for 1 hr. TMB substrate was added to the wells with a 10 minute color development and the reaction was stopped with 2M sulfuric acid. Absorbance was read at 450-650 nm and the data analyzed using the 4-parameter fit within the Softmax Pro analysis program.
as §3, with “VEGF (ATGEN, South Korea) was coated onto Nunc maxisorb plates at 2 ug/ml (100 μl/well) and incubated overnight at 2-8° C. Bispecific” for “FIG. 7. Bispecific antibody ELISA. Bispecific”, “to the” for “to a”, “Streptavidin-HRP (Jackson ImmunoResearch, West Grove, Pa.)” for “Streptavidin-HRP”, “analysis program (Molecular Devices, Sunnyvale, Calif.).” for “analysis program.”

Experiment [7] deals with T4, biotin-DLL4-hFc. In words: Bispecific bridging ELISA: antibody pre-incubated with biotin-DLL4-hFc, captured on VEGF (ATGEN)-coated plate, streptavidin-HRP; potency relative to a reference anti-VEGF/anti-DLL4 bispecific antibody. The method, then: as §3, with “VEGF (ATGEN, South Korea) was coated onto Nunc maxisorb plates at 2 ug/ml (100 μl/well) and incubated overnight at 2-8° C. Bispecific” for “FIG. 7. Bispecific antibody ELISA. Bispecific”, “to the” for “to a”, “Streptavidin-HRP (Jackson ImmunoResearch, West Grove, Pa.)” for “Streptavidin-HRP”, “analysis program (Molecular Devices, Sunnyvale, Calif.).” for “analysis program.”

Experiment [8] concerns the target T2, Recombinant human DLL4-Fc. The experiment can be described thus: SPR (Biacore 2000), human DLL4-Fc amine-coupled on CM5 chip, antibody as analyte. The method, then: as §1
Several additional anti-DLL4 antibodies were identified that had binding affinities intermediate to the KDs of 21M18 and 21R79. Two of these anti-DLL4 antibodies were used to produce anti-VEGF/anti-DLL4 bispecific antibodies 219R45-MB-21R75 and 219R45-MB-21R83. Using the Biacore 2000 system as described above, the KDs of the bispecific antibodies 219R45-MB-21R75 and 219R45-MB-21R83 to human DLL4 were determined.
This is another data set of the same source.

Changes are numbered by the printed parent chain. Read-outs that look alike come from different tables or passages of the source. Some results are limits rather than exact numbers.

T2 sequence (Q9NR61 27-522 limits assumed): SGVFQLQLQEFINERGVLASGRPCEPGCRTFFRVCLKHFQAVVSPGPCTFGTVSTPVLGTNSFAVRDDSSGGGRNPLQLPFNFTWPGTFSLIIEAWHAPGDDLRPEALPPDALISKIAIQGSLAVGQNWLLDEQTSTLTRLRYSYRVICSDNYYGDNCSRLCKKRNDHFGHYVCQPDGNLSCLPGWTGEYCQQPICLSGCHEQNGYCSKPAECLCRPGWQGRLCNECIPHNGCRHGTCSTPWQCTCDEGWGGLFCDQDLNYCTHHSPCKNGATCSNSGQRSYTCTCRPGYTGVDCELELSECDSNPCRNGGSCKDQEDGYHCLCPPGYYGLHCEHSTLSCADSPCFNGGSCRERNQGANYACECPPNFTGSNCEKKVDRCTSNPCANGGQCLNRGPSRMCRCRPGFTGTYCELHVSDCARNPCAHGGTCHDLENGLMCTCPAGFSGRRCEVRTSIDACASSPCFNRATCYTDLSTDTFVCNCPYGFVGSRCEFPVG
T4 sequence (Q9NR61 27-522 limits assumed): as above

B1: anti-VEGF antibody 219R45 (parental, IgG format) (antibody, V domains shown)
VH: QVQLVQSGAEVKKPGASVKVSCKASGYTFTNYWMHWVRQAPGQGLEWMGDINPSNGRTSYKEKFKRRVTLSVDKSSSTAYMELSSLRSEDTAVYFCTIHYDDKYYPLMDYWGQGTLVTVSS
VL: DIVMTQSPDSLAVSLGERATISCRASESVDNYGISFMKWFQQKPGQPPKLLIYAASNQGSGVPDRFSGSGSGTDFTLTISSLQAEDVAVYYCQQSKEVPWTFGGGTKVEIKR
notes: Tested as the bivalent parental antibody in IgG format; also called parental anti-VEGF antibody 219R45
Regarding B1, the Kd – broadly, the equilibrium constant for the complex coming apart – is 22.9 nM in experiment [1] and 0.67 nM in experiment [3]. Also, in experiment [2], the binding result was “no binding”.

B2: anti-DLL4 antibody 21R79 (parental, IgG format) (antibody, V domains shown)
VH: QVQLVQSGAEVKKPGASVKISCKASGYSFTAYYIHWVKQAPGQGLEWIGYIANYNRATNYNQKFKGRVTFTTDTSTSTAYMELRSLRSDDTAVYYCARDYDYDVGMDYWGQGTLVTVSS
VL: B1 VL
notes: Tested as the parental antibody in IgG format
Consider B2, for which the binding result in experiment [1] is “no binding (tested: 100 nM (highest concentration injected))”; in experiment [4], “no binding”. Moreover, the Kd in experiment [5] is under 0.1 nM.

B3: anti-DLL4 antibody 21M18 (parental, IgG format) (antibody, V domains shown)
VH: B2 VH with A52S, N53S, R56G
VL: DIVMTQSPDSLAVSLGERATISCRASESVDNYGISFMKWFQQKPGQPPKLLIYAASNQGSGVPDRFSGSGSGTDFTLTISSLQAEDVAVYYCQQSKEVPWTFGGGTKVEIK
notes: Tested in IgG format; also called anti-hDLL4 antibody 21M18
Take B3: the binding result is “no binding (tested: 100 nM (highest concentration injected))” in experiment [1] and “no binding” in experiment [4]. Further, the Kd in experiment [5] is under 0.1 nM.

B4: anti-VEGF/anti-DLL4 bispecific antibody 219R45-MB-21R83 (bispecific antibody, human IgG2)
heavy 1: QVQLVQSGAEVKKPGASVKVSCKASGYTFTNYWMHWVRQAPGQGLEWMGDINPSNGRTSYKEKFKRRVTLSVDKSSSTAYMELSSLRSEDTAVYFCTIHYDDKYYPLMDYWGQGTLVTVSSASTKGPSVFPLAPCSRSTSESTAALGCLVKDYFPEPVTVSWNSGALTSGVHTFPAVLQSSGLYSLSSVVTVPSSNFGTQTYTCNVDHKPSNTKVDKTVERKCCVECPPCPAPPVAGPSVFLFPPKPKDTLMISRTPEVTCVVVDVSHEDPEVQFNWYVDGVEVHNAKTKPREEQFNSTFRVVSVLTVVHQDWLNGKEYKCKVSNKGLPAPIEKTISKTKGQPREPQVYTLPPSREKMTKNQVSLTCLVKGFYPSDIAVEWESNGQPENNYKTTPPMLKSDGSFFLYSKLTVDKSRWQQGNVFSCSVMHEALHNHYTQKSLSLSPGK
heavy 2: QVQLVQSGAEVKKPGASVKISCKASGYSFTAYYIHWVKQAPGQGLEWIGYISNYNRATNYNQKFKGRVTFTTDTSTSTAYMELRSLRSDDTAVYYCARDYDYDVGMDYWGQGTLVTVSSASTKGPSVFPLAPCSRSTSESTAALGCLVKDYFPEPVTVSWNSGALTSGVHTFPAVLQSSGLYSLSSVVTVPSSNFGTQTYTCNVDHKPSNTKVDKTVERKCCVECPPCPAPPVAGPSVFLFPPKPKDTLMISRTPEVTCVVVDVSHEDPEVQFNWYVDGVEVHNAKTKPREEQFNSTFRVVSVLTVVHQDWLNGKEYKCKVSNKGLPAPIEKTISKTKGQPREPQVYTLPPSREEMTKNQVSLTCLVEGFYPSDIAVEWESNGQPENNYKTTPPMLDSDGSFFLYSELTVDKSRWQQGNVFSCSVMHEALHNHYTQKSLSLSPGK
light: DIVMTQSPDSLAVSLGERATISCRASESVDNYGISFMKWFQQKPGQPPKLLIYAASNQGSGVPDRFSGSGSGTDFTLTISSLQAEDVAVYYCQQSKEVPWTFGGGTKVEIKRTVAAPSVIFPPSDEQLKSGTASVVCLLNNFYPREAKVQWKVDNALQSGNSQESVTEQDSKDSTYSLSSTLTLSKADYEKHKVYACEVTHQGLSSPVTKSFNRGEC
notes: Monovalent/bispecific IgG2 heterodimer with charge-modified CH3 domains and two identical light chains
On to B4, for which, in the experiment with biotin-DLL4-hFc [6], the EC50 (read off the curve) – broadly, the concentration needed to bring the measured effect to its halfway point – is about 1 ng/mL. Moreover, the “Relative Potency (%)” value in the experiment with biotin-DLL4-hFc [7] was found to be 222%. The Kd in experiment [8] amounted to 1.3 nM.

B5: anti-VEGF/anti-DLL4 bispecific antibody 219R45-MB-21M18 (bispecific antibody, human IgG2)
heavy 1: B4 heavy 1
heavy 2: B4 heavy 2 with N53S, R56G
light: B4 light
notes: Monovalent/bispecific (MB) IgG2 heterodimer with charge-modified CH3 domains and two identical light chains
Regarding B5, in the experiment with biotin-DLL4-hFc [6], the “EC50 (read off the curve)” value is about 5 ng/mL. Further, the dissociation constant Kd in experiment [1] was 25.5 nM; in experiment [8] it was 16 nM; in experiment [3], 0.36 nM; in experiment [5] it was 16 nM. Besides, the “Relative Potency (%)” value with biotin-DLL4-hFc [7] was 67%.

B6: anti-VEGF/anti-DLL4 bispecific antibody 219R45-MB-21R75 (bispecific antibody, human IgG2)
heavy 1: B4 heavy 1
heavy 2: B4 heavy 2 with S52A, N53G, N55K, R56D
light: B4 light
notes: as for B4
Consider B6, for which, in the experiment with biotin-DLL4-hFc [6], the “EC50 (read off the curve)” value is about 0.8 ng/mL. In addition, the “Relative Potency (%)” value in the experiment with biotin-DLL4-hFc [7] turned out to be 422%. Moreover, the Kd in experiment [8] turned out to be 5.1 nM.

For the origin of these results see patent publication US20180305449A1 (ONCOMED PHARMACEUTICALS, published 2018).
